According to patent US20190010205A1:

Target: human prolactin receptor (hPRLR) expressed on mouse BaF3 cells (BaF3/hPRLR cells) (human) (UniProt P16471)
Test: cell-based or functional assay

Sequence of human prolactin receptor (hPRLR) expressed on mouse BaF3 cells (BaF3/hPRLR cells) (human) (P16471 25-622): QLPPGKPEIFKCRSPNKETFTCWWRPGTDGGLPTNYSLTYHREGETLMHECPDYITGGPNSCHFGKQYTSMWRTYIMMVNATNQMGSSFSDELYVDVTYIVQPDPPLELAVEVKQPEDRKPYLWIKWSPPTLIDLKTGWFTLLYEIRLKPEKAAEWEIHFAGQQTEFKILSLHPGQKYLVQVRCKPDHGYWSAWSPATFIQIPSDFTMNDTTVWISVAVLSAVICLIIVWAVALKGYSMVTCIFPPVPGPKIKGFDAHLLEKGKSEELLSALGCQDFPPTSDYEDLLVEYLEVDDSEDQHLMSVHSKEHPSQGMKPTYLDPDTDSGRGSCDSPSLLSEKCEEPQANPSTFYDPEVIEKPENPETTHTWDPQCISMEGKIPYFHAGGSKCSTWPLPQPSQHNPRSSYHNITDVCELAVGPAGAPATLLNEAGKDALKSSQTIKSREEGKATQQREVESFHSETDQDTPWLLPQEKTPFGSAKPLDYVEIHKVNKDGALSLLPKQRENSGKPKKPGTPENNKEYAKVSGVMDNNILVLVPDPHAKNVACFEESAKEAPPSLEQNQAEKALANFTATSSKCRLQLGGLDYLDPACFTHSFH

human prolactin (hPRL, R&D System Inc.) (from UniProt P01236 29-227) (ligand)
EC50, growth of BaF3/hPRLR cells (positive control): 2.1 pM
